Test results: publication PMC11809415 (The Journal of Cell Biology, 2025)

Biological target: F-actin (rabbit skeletal muscle α-actin filaments) (rabbit, UniProt P68135 1-377)
Assay: co-sedimentation; 2 µM F-tractinopt-mCherry fusions incubated with F-actin at increasing concentrations for 5 min at room temperature, 120,000 g for 20 min at 4°C; supernatant and pellet on SDS-PAGE, densitometry; Kd by GraphPad Prism
Settings: both partners purified

B1: F-tractinopt–mCherry fusion (domain or fragment)
chain: APRRSVGELRLLFEARAASAA
notes: rat inositol 1,4,5-trisphosphate 3-kinase A; numbers count on: the 43-residue F-tractin peptide (peptide residue n = kinase residue n+9); source: E. coli BL21-CodonPlus(DE3)-RIPL, purified (Protino Ni-IDA resin)
Q: B1 was tested. Which Kd did it give?
A: 8.5 ± 1.2 µM
